Experimental data: publication PMC5482197
Values belong to the substance of their own block, whether it stands above or below them.

What was measured:
[1] = molecular target: integrin α5β1 on K562 erythroleukaemia cells, P08648;P05556; test: cell adhesion assay (K562 cells); conditions: K562 cells (αvβ3-, α5β1+), panel title K562_FGF2_RPMI, read off a plot
[2] = molecular target: recombinant soluble integrin αvβ3 (UniProt P06756); test: SPR; soluble αvβ3 immobilized on a CM5 sensor chip by amine coupling; WT and mutant FGF2 two-fold serially diluted from 2 μM in HBS-P buffer (0.01 M Hepes, pH 7.4, 0.15 M NaCl, 0.0005% surfactant P20) with 1 mM Mn2+; 50 μl/min, 1.8 min injection, 3 min dissociation; WT: Kd is the average of Kd values of individual curves; K125E: global fit with a conformation-change model, Kd1 used as Kd
Chain of UniProt P06756 (P06756 31-1048, chain 1 of 2): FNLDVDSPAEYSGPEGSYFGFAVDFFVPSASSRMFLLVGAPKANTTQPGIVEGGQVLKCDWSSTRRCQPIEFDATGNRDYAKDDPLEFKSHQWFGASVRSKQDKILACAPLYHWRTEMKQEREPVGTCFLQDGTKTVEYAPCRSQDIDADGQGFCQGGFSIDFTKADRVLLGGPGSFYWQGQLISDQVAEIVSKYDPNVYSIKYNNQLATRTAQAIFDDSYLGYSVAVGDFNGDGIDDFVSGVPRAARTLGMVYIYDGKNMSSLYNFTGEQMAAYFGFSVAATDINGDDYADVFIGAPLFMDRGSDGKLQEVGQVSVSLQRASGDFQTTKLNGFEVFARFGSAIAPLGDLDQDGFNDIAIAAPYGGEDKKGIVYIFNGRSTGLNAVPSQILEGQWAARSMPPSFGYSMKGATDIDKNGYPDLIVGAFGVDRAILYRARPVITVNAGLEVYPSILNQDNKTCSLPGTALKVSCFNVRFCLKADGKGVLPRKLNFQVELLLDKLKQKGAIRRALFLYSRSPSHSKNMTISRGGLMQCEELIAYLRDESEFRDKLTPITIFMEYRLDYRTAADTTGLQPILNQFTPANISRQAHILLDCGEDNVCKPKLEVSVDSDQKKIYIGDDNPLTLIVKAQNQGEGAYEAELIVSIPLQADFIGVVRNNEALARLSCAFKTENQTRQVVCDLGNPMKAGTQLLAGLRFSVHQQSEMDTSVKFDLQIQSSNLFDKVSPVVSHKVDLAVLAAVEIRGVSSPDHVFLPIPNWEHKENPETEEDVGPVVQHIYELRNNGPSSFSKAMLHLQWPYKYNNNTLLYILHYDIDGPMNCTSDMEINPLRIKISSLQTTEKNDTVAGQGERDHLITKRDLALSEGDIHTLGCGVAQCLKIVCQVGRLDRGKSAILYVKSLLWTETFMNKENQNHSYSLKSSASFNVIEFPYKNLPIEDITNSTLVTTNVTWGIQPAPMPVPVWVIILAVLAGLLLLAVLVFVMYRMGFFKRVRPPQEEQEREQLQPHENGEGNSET
Chain of UniProt P06756 (P05106 27-718, chain 2 of 2, further chain): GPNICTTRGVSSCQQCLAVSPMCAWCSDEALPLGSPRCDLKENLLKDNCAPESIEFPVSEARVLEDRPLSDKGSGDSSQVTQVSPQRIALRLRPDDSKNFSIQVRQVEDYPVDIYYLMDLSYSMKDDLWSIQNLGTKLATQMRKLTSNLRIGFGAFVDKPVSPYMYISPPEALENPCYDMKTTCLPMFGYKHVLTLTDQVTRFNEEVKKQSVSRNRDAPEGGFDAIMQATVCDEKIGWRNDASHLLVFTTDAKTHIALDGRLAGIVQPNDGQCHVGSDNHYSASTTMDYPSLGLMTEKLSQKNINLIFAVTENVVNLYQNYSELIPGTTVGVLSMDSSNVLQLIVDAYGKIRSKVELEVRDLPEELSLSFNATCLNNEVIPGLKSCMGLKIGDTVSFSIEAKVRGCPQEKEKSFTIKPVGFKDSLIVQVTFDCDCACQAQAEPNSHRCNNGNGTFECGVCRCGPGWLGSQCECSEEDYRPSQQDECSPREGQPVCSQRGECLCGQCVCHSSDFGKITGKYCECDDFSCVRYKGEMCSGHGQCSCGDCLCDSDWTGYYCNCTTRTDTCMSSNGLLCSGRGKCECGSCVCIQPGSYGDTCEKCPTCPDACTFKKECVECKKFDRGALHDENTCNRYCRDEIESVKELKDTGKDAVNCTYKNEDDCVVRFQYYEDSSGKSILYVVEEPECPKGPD

Chain of wild-type human FGF2 (fibroblast growth factor 2) (P09038 143-288): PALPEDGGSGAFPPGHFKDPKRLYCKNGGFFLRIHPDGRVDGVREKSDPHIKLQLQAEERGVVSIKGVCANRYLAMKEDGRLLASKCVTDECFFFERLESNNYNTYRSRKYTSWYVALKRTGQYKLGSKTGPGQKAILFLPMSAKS

response ([1]; FGF2 2.5 µg/ml, parent: est. 63): 27 % adhesion
response ([1]; FGF2 5 µg/ml, parent: est. 84): 68 % adhesion
response ([1]; FGF2 20 µg/ml, parent: est. 85): 89 % adhesion
Substance: wild-type human FGF2 (fibroblast growth factor 2) K39E

Kd1 (A + B <=> AB, first step of the conformation-change model; used by the paper as the binding Kd) [2]: 1100 nM
Substance: FGF2 K125E mutant (ligand)

Kd [2]: 77.5 nM
Substance: wild-type human FGF2 (fibroblast growth factor 2) (ligand)
